Results on 6 molecules are retold here after patent publication US20230235004A1 (published 2023).

For assay [1], the target named is T1, human MAdCAM expressed on cells (human, UniProt Q13477 19-382).
T1 construct: whole, on cells
T1 sequence (looked up): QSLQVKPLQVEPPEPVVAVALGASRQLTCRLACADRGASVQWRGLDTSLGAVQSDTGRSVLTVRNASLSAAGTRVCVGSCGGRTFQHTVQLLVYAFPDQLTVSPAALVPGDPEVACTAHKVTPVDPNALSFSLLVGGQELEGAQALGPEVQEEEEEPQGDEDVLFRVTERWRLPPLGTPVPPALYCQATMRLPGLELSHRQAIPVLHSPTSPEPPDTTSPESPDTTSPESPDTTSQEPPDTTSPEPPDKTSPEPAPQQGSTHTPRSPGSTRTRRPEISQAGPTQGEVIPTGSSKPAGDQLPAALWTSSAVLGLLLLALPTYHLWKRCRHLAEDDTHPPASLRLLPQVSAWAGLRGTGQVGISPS
Description: cell binding.

Assay [2] addresses T2, mouse MAdCAM expressed on cells (mouse, UniProt Q61826 22-405).
T2 construct: whole, on cells
T2 sequence (looked up): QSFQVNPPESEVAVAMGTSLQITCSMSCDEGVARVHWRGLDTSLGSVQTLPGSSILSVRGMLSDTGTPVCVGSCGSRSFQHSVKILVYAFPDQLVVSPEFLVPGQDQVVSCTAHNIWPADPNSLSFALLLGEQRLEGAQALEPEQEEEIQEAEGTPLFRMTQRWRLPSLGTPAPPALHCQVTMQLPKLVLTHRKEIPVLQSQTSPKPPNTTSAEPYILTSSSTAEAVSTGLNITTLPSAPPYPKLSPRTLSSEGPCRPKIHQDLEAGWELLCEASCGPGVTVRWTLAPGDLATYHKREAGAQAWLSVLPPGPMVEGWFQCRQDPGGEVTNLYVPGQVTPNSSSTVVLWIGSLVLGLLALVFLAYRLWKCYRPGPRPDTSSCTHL
Description: cell binding.

In assay [3] the target is T3, recombinant mouse MAdCAM-1 (mouse, UniProt Q61826 22-364, limits assumed).
T3 construct: also called mMAdCAM-1
T3 sequence (looked up): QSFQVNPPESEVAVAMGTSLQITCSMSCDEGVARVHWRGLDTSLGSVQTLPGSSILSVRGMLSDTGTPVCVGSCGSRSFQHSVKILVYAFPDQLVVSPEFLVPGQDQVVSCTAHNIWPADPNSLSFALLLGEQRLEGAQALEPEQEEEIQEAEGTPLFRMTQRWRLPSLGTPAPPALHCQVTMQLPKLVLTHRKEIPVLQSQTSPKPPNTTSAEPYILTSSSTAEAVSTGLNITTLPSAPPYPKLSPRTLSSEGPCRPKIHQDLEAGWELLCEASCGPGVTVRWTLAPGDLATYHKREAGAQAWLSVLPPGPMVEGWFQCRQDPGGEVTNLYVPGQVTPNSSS
Description: Octet.

The target in the next assay is T4, human MAdCAM protein (human, UniProt Q13477 19-317, limits assumed).
T4 construct: also called soluble monomeric human MAdCAM; recombinant human MAdCAM
T4 sequence (looked up): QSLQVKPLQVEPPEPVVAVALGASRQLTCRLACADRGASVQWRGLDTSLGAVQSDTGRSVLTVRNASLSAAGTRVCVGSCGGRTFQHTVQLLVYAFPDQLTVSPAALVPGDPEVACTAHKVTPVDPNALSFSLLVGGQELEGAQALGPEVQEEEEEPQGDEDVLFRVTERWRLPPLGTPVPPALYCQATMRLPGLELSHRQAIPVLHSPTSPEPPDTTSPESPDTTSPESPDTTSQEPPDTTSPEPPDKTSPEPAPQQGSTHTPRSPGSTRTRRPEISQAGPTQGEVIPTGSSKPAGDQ
Description: Octet.

B1: MAdCAM Antibody Table 2 clone 22 (antibody, V domains shown)
VH: EVQLLESGGGLVQPGGSLRLSCAASGFTFDDYAMHWVRQAPGKGLEWVSGISWNSGSIGYADSVKGRFTISRDNSKNTLYLQMNSLRAEDTAVYYCAKDIVAAGHYYYGMDVWGQGTTVTVSS
VL: DIQMTQSPSSLSASVGDRVTITCQASQDISNYLNWYQQKPGKAPKLLIYDASNLETGVPSRFSGSGSGTDFTLTISSLQPEDFATYYCQQSYSTPLTFGGGTKVEIK
notes: IgG format
On to B1, for which the binding result is recorded as “binds” in assay [1], “no binding” in assay [2], “no binding” in assay [3] and “binds” with human MAdCAM protein.

B2: MAdCAM Antibody Table 2 clone 65 (antibody, V domains shown)
VH: QVQLVQSGAEVKKPGASVKVSCKASGYTFTSYDINWVRQAPGQGLEWMGWMNPNSGNTGYAQKFQGRVTMTRDTSTSTVYMELSSLRSEDTAVYYCAKDSDYSNLLWDYWGQGTLVTVSS
VL: DIQMTQSPSSLSASVGDRVTITCRASQDITNDLGWYQQKPGKAPKLLIYQASSLESGVPSRFSGSGSGTDFTLTISSLQPEDFATYYCQQSYTIPLTFGQGTKVEIK
notes: IgG format
As for B2, the binding result was “binds” in assay [1], “no binding” in assay [2], “no binding” in assay [3] and “binds” in the assay with human MAdCAM protein.

B3: MAdCAM Antibody Table 2 clone 23 (antibody, V domains shown)
VH: EVQLLESGGGLVQPGGSLRLSCAASGFTFDDYAMHWVRQAPGKGLEWVSYIDTSSSHLYYADSVKGRFTISRDNSKNTLYLQMNSLRAEDTAVYYCARDEAAAGYYGMDVWGQGTTVTVSS
VL: DIQMTQSPSSLSASVGDRVTITCQAGQDISNYLNWYQQKPGKAPKLLIYDASNLETGVPSRFSGSGSGTDFTLTISSLQPEDFATYYCQQTYSTPITFGQGTKLEIK
notes: IgG format
On to B3, for which the binding result in assay [1] was “binds”; in assay [2], “no binding”; in assay [3], “no binding”; with human MAdCAM protein it was “binds”.

B4: MAdCAM Antibody Table 2 clone 46 (antibody, V domains shown)
VH: EVQLLESGGGLVQPGGSLRLSCAASGFSFSSYTMNWVRQAPGKGLEWVSFITSSSRTIYYADSVKGRFTISRDNSKNTLYLQMNSLRAEDTAVYYCARDRRGDYGDSWYFDLWGRGTLVTVSS
VL: EIVMTQSPATLSVSPGERATLSCRASQSVRNYLAWYQQKPGQAPRLLIYGASTRATGIPARFSGSGSGTEFTLTISSLQSEDFAVYYCQQYGSSPLTFGGGTKVEIK
notes: IgG format
Consider B4, for which the binding result in assay [1] was “binds”; in assay [2], “no binding”; in assay [3], “no binding”; in the assay with human MAdCAM protein, “binds”.

B5: MAdCAM Antibody Table 2 clone 74 (antibody, V domains shown)
VH: QVQLVQSGAEVKKPGASVKVSCKASGYTFTGYYMHWVRQAPGQGLEWMGIINPSGGNTKYAQKFQGRVTMTRDTSTSTVYMELSSLRSEDTAVYYCTTADYYYYMDVWGKGTTVTVSS
VL: DIQMTQSPSSLSASVGDRVTITCRASQGISNYLAWYQQKPGKAPKLLIYAASSLQSGVPSRFSGSGSGTDFTLTISSLQPEDFATYYCQQYYSNADFGQGTKVEIK
notes: IgG format
Take B5: the binding result in assay [1] is “binds”; in assay [2], “no binding”; in assay [3] it was “no binding”; with human MAdCAM protein, “binds”.

B6: MAdCAM Antibody Table 2 clone 75 (antibody, V domains shown)
VH: EVQLLESGGGLVQPGGSLRLSCAASGFTFSDFWMHWVRQAPGKGLEWISYISGDSGYTNYADSVKGRFTISRDNSKNTLYLQMNSLRAEDTAVYYCARDRPYYYYMDVWGKGTTVTVSS
VL: DIQMTQSPSSLSASVGDRVTITCRASQSVSRSLAWYQQKPGKAPKLLIYAASSLQSGVPSRFSGSGSGTDFTLTISSLQPEDFATYYCQQYKSYPVTFGQGTKVEIK
notes: IgG format
For B6, the binding result (in assay [1]; in assay [2]; in assay [3]; in the assay with human MAdCAM protein) was “binds” throughout.
